Data from publication PMC12604781 (PLOS Pathogens, 2025).

Tests used:
[1] = molecular target: SUMO-HSV-1 peptide AB (herpes simplex virus type 1 (HSV-1)); assay: ITC
pcGAS [2] = assay type: biochemical, porcine; conditions: pH 7.5
PRV US1 = molecular target: T1, PRV US1 (pseudorabies virus, UniProt A0AAX7FDV8 1-364); assay: EMSA; molar ratio 0-16; EMSA: 2.5 uM ISD45, DNA:protein molar ratio 1:0 to 1:32, 0.8% agarose, 40 mM Tris-HCl pH 9.2 running buffer, 110 V, ethidium bromide; binding buffer and temperature not stated (protein stock 20 mM Tris-HCl pH 7.5, 150 mM NaCl, 5 mM DTT); conditions: protein: recombinant; tags: His6-SUMO removed; blunt
T1 sequence: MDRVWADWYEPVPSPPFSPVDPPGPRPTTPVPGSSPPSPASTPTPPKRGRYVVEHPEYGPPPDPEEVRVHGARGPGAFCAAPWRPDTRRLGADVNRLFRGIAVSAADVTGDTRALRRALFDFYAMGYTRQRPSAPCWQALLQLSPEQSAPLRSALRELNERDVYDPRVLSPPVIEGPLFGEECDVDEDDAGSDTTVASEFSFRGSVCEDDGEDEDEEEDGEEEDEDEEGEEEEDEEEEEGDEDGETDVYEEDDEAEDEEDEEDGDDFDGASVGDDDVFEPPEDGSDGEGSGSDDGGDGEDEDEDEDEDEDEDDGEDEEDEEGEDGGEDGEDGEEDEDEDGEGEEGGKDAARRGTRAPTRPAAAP

pcGASCT = molecular target: T2, pcGASCT (Sus scrofa? (porcine), UniProt I3LM39 145-495); assay: EMSA; no US1; EMSA: 2.5 uM ISD45, DNA:protein molar ratio 1:0 to 1:32, 0.8% agarose, 40 mM Tris-HCl pH 9.2 running buffer, 110 V, ethidium bromide; binding buffer and temperature not stated (protein stock 20 mM Tris-HCl pH 7.5, 150 mM NaCl, 5 mM DTT); conditions: protein: recombinant; tags: Flag/HA double tag vector; His6-SUMO; blunt
T2 sequence: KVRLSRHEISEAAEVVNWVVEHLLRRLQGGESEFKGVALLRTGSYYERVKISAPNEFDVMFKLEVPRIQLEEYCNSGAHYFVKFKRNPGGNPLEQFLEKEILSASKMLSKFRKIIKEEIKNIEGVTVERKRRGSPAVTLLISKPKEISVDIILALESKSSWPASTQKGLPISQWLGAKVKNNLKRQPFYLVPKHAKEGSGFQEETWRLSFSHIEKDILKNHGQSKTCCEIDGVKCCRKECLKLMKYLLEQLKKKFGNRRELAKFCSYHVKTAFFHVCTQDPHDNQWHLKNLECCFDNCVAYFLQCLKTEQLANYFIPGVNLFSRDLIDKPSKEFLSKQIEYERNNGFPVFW

hcGAS = hcGAS (Homo sapiens? (human), UniProt Q8N884 1-522); assay: as above; conditions: protein: recombinant; tags: N-terminal Flag, C-terminal HA; His6-SUMO removed; blunt
Chain of hcGAS (Q8N884 whole entry): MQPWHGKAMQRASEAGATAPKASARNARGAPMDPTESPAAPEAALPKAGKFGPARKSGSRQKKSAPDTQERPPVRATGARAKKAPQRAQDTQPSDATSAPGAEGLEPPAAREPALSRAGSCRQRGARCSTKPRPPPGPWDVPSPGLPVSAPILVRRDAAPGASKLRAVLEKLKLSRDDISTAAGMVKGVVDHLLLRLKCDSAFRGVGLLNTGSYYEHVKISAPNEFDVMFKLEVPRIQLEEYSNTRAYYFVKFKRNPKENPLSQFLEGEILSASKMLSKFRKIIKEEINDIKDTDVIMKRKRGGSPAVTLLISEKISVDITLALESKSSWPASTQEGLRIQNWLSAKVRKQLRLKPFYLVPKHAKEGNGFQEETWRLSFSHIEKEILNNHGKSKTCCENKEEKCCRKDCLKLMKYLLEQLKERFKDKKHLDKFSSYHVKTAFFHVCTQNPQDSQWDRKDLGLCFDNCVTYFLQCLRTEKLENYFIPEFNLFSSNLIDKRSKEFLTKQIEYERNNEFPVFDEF

mcGAS = mcGAS (Mus musculus? (mouse), UniProt Q8C6L5 1-507); assay: as above; conditions: protein: recombinant; tags: N-terminal Flag, C-terminal HA; His6-SUMO removed; chain copies: 2; blunt
Chain of mcGAS (Q8C6L5 whole entry): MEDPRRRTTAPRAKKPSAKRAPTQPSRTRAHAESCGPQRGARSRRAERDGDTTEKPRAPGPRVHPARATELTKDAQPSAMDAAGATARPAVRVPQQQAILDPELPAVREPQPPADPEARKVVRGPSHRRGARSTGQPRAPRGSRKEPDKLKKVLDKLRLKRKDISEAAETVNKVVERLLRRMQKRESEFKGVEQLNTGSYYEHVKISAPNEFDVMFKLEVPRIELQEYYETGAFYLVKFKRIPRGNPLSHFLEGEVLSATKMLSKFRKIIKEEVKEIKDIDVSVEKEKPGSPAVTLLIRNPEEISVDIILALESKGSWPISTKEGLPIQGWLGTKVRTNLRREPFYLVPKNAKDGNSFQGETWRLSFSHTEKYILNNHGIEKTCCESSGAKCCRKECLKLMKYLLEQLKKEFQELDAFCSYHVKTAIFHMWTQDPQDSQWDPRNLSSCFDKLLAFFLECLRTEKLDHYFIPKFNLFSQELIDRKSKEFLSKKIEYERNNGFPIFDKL

pcGASNT = molecular target: T3, pcGASNT (Sus scrofa? (porcine), UniProt I3LM39 1-134); assay: as above; conditions: protein: recombinant; tags: Flag/HA double tag vector; His6-SUMO; blunt
T3 sequence: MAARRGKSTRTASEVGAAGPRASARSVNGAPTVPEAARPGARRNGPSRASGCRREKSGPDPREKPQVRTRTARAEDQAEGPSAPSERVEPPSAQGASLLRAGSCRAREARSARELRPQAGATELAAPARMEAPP

pcGAS [3] = molecular target: T4, pcGAS (Sus scrofa? (porcine), UniProt I3LM39 1-495); assay: as above; conditions: protein: recombinant; tags: N-terminal Flag, C-terminal HA; His6-SUMO removed; blunt
T4 sequence: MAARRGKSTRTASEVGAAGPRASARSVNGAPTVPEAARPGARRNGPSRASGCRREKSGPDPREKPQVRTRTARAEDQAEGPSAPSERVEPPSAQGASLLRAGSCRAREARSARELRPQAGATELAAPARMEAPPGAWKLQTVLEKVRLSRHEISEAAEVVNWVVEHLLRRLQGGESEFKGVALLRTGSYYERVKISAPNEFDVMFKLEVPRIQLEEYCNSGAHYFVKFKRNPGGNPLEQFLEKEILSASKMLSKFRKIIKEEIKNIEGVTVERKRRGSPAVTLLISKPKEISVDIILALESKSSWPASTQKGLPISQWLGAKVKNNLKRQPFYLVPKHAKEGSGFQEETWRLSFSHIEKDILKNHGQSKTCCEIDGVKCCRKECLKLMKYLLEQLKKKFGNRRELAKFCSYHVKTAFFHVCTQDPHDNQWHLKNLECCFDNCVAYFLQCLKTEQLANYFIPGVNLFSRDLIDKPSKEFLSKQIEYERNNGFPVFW

pcGAS^CT (C-terminus, catalytic domain of porcine cGAS) (domain or fragment)
Kd [1]: 2.85 µM

AWKLQT [random peptide]
effect on cGAS enzymatic activity / cGAMP synthesis (pcGAS [2]): neither peptide A nor peptide B, nor the random peptide inhibited cGAMP synthesis

hcGAS^CT (C-terminus, catalytic domain of human cGAS) (domain or fragment)
Kd [1]: 15.7 µM

B1: ISD45 (dsDNA)
DNA 1: TACAGATCTACTAGTGATCTATGACTGATCTGTACATGATCTACA
DNA 2: TGTAGATCATGTACAGATCAGTCATAGATCACTAGTAGATCTGTA
binding result (PRV US1): no binding | binding result (pcGASCT): binds | binding result (hcGAS): binds | binding result (mcGAS): binds | binding result (pcGASNT): binds | binding result (pcGAS [3]): binds
